According to doi:10.1101/2021.07.07.451439:

Experiments:
TRIM27 = TRIM27 (UniProt P14373); assay: GFP-NanoTrap IP of GFP-USP7, immunoblot; conditions: reference: wild type GFP-USP7; sites S18
TCEAL4 = TCEAL4 (UniProt Q96EI5); assay: GFP-NanoTrap IP, blot of lower MW TCEAL4; conditions: reference: wild type GFP-USP7; sites S18

- binding against the reference (TRIM27): stronger
- binding against the reference (TCEAL4): stronger
Substance: USP7 (from UniProt Q93009) S18A
